According to US20180271998A1 (MERRIMACK PHARMACEUTICALS, published 2018):

B1: anti-EphA2 Fab 12 (IgG1 G44C, C233S heavy chain; lambda G100C, C214S light chain), Fab-PEG-DSPE conjugate (Fab, V domains shown)
VH: QVQLVQSGGGLVQPGGSLRLSCAASGFTFSSYAMHWVRQAPGKCLEWVTVISPDGHNTYYADSVKGRFTISRDNSKNTLYLQMNSLRAEDTAVYYCARASVGATGPFDIWGQGTLVTVSS
VL: SSELTQPPSVSVAPGQTVTITCQGDSLRSYYASWYQQKPGTAPKLLIYGENNRPSGVPDRFSGSSSGTSASLTITGAQAEDEADYYCNSRDSSGTHLTVFGCGTKLTVLG
modifications: mal-PEG(2000)-DSPE linker conjugated to the C-terminal cysteine of the heavy chain (Cys in DKTHTCAA)
B2: anti-EphA2 Fab 16 (IgG1 H172F, F174C, C233S heavy chain; lambda T162L, S174V, S176C, C214S light chain), Fab-PEG-DSPE conjugate (Fab, V domains shown)
VH: QVQLVQSGGGLVQPGGSLRLSCAASGFTFSSYAMHWVRQAPGKGLEWVTVISPDGHNTYYADSVKGRFTISRDNSKNTLYLQMNSLRAEDTAVYYCARASVGATGPFDIWGQGTLVTVSS
VL: SSELTQPPSVSVAPGQTVTITCQGDSLRSYYASWYQQKPGTAPKLLIYGENNRPSGVPDRFSGSSSGTSASLTITGAQAEDEADYYCNSRDSSGTHLTVFGGGTKLTVLG
modifications: mal-PEG(2000)-DSPE linker conjugated to the C-terminal cysteine of the heavy chain (Cys in DKTHTCAA)
B3: anti-EphA2 Fab 17 (IgG1 G44L, F174C, C233S heavy chain; lambda G100L, S176C, C214S light chain), Fab-PEG-DSPE conjugate (Fab, V domains shown)
VH: QVQLVQSGGGLVQPGGSLRLSCAASGFTFSSYAMHWVRQAPGKLLEWVTVISPDGHNTYYADSVKGRFTISRDNSKNTLYLQMNSLRAEDTAVYYCARASVGATGPFDIWGQGTLVTVSS
VL: SSELTQPPSVSVAPGQTVTITCQGDSLRSYYASWYQQKPGTAPKLLIYGENNRPSGVPDRFSGSSSGTSASLTITGAQAEDEADYYCNSRDSSGTHLTVFGLGTKLTVLG
modifications: mal-PEG(2000)-DSPE linker conjugated to the C-terminal cysteine of the heavy chain (Cys in DKTHTCAA)
B4: anti-EphA2 Fab 18 (IgG1 G44L, H172E, F174C, C233S heavy chain; lambda G100L, T162D, S176C, C214S light chain), Fab-PEG-DSPE conjugate (Fab, V domains shown)
VH: QVQLVQSGGGLVQPGGSLRLSCAASGFTFSSYAMHWVRQAPGKLLEWVTVISPDGHNTYYADSVKGRFTISRDNSKNTLYLQMNSLRAEDTAVYYCARASVGATGPFDIWGQGTLVTVSS
VL: SSELTQPPSVSVAPGQTVTITCQGDSLRSYYASWYQQKPGTAPKLLIYGENNRPSGVPDRFSGSSSGTSASLTITGAQAEDEADYYCNSRDSSGTHLTVFGLGTKLTVLG
modifications: mal-PEG(2000)-DSPE linker conjugated to the C-terminal cysteine of the heavy chain (Cys in DKTHTCAA)
B5: anti-EphA2 Fab 14 (IgG1 G44C, F174C, C233S heavy chain; lambda G100C, S176C, C214S light chain), Fab-PEG-DSPE conjugate (Fab, V domains shown)
VH: QVQLVQSGGGLVQPGGSLRLSCAASGFTFSSYAMHWVRQAPGKCLEWVTVISPDGHNTYYADSVKGRFTISRDNSKNTLYLQMNSLRAEDTAVYYCARASVGATGPFDIWGQGTLVTVSS
VL: SSELTQPPSVSVAPGQTVTITCQGDSLRSYYASWYQQKPGTAPKLLIYGENNRPSGVPDRFSGSSSGTSASLTITGAQAEDEADYYCNSRDSSGTHLTVFGCGTKLTVLG
modifications: mal-PEG(2000)-DSPE linker conjugated to the C-terminal cysteine of the heavy chain (Cys in DKTHTCAA)
B6: anti-EphA2 Fab 13 (IgG1 F174C, C233S heavy chain; lambda S176C, C214S light chain), Fab-PEG-DSPE conjugate (Fab, V domains shown)
VH: QVQLVQSGGGLVQPGGSLRLSCAASGFTFSSYAMHWVRQAPGKGLEWVTVISPDGHNTYYADSVKGRFTISRDNSKNTLYLQMNSLRAEDTAVYYCARASVGATGPFDIWGQGTLVTVSS
VL: SSELTQPPSVSVAPGQTVTITCQGDSLRSYYASWYQQKPGTAPKLLIYGENNRPSGVPDRFSGSSSGTSASLTITGAQAEDEADYYCNSRDSSGTHLTVFGGGTKLTVLG
modifications: mal-PEG(2000)-DSPE linker conjugated to the C-terminal cysteine of the heavy chain (Cys in DKTHTCAA)
B7: anti-EphA2 Fab 19 (IgG1 G44L, H172F, F174C, C233S heavy chain; lambda G100L, T162L, S174V, S176C, C214S light chain), Fab-PEG-DSPE conjugate (Fab, V domains shown)
VH: QVQLVQSGGGLVQPGGSLRLSCAASGFTFSSYAMHWVRQAPGKLLEWVTVISPDGHNTYYADSVKGRFTISRDNSKNTLYLQMNSLRAEDTAVYYCARASVGATGPFDIWGQGTLVTVSS
VL: SSELTQPPSVSVAPGQTVTITCQGDSLRSYYASWYQQKPGTAPKLLIYGENNRPSGVPDRFSGSSSGTSASLTITGAQAEDEADYYCNSRDSSGTHLTVFGLGTKLTVLG
modifications: mal-PEG(2000)-DSPE linker conjugated to the C-terminal cysteine of the heavy chain (Cys in DKTHTCAA)
B8: anti-EphA2 Fab 15 (IgG1 H172E, F174C, C233S heavy chain; lambda T162D, S176C, C214S light chain), Fab-PEG-DSPE conjugate (Fab, V domains shown)
VH: QVQLVQSGGGLVQPGGSLRLSCAASGFTFSSYAMHWVRQAPGKGLEWVTVISPDGHNTYYADSVKGRFTISRDNSKNTLYLQMNSLRAEDTAVYYCARASVGATGPFDIWGQGTLVTVSS
VL: SSELTQPPSVSVAPGQTVTITCQGDSLRSYYASWYQQKPGTAPKLLIYGENNRPSGVPDRFSGSSSGTSASLTITGAQAEDEADYYCNSRDSSGTHLTVFGGGTKLTVLG
modifications: mal-PEG(2000)-DSPE linker conjugated to the C-terminal cysteine of the heavy chain (Cys in DKTHTCAA)

Legend:
[1] = target: T1, Recombinant, Human EphA2 with C-terminal hexahistidine appended (human, UniProt P29317 25-534); assay: BLI (Octet Red 96), EphA2-His on anti-His5 sensors, Fab-PEG-DSPE conjugate
T1 construct: Captured on anti-His5 sensors; also called his-tagged recombinant, human EphA
T1 sequence (P29317 other isoform, or with tags, fused parts or gaps limits assumed): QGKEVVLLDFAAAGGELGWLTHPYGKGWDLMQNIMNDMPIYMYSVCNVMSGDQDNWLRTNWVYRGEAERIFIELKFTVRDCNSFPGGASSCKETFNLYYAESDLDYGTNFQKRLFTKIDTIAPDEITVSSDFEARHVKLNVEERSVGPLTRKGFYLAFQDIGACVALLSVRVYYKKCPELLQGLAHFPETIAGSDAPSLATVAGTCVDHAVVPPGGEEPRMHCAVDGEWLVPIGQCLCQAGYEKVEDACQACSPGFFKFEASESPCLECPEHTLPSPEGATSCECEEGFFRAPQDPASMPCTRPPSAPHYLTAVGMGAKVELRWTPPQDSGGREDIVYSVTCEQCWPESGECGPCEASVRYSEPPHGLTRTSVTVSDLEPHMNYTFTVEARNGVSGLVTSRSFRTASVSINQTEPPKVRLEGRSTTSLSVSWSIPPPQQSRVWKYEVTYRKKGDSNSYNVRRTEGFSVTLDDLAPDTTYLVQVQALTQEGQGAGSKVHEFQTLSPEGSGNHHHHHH
Protocol: (§1) The Fab-PEG-DSPE conjugates were assayed for EphA2 binding strength using the FortéBIO® Octet® Red 96 system (Pall Corporation) to determine whether conjugation or engineering of the Fab affected binding activity. […] Anti-His5 sensors were first coated with his-tagged recombinant, human EphA (SEQ ID NO:47) at a concentration of 10 μg/ml protein in PBS. The sensors were then incubated in 4 μg/ml of Fab-PEG-DSPE conjugate in PBS. The slope of an association curve between 2-10 seconds was determined and compared across the variants and to the reference conjugate, Fab 11-PEG-PE, which is the anti-EphA2 antibody with wild-type disulfide pairing.

[2] = target: T1, Recombinant, Human EphA2 with …; assay: BLI (Octet Red96), EphA2-His on anti-His5 sensors, liposomes with inserted conjugate
Protocol: (§2) The purified liposomes were assayed for EphA2 binding strength by FortéBIO® Octet® Red96 system (Pall) in PBS at 25 μM liposome phospholipid using anti-His5 sensors coated with recombinant human EphA2 with C-terminal hexahistidine (SEQ ID NO:47). The slope of the association curve from 3-20 sec was determined and compared to the slope observed for liposomes with inserted conjugate of the wild type Fab.

[3] = target: T1, Recombinant, Human EphA2 with …; assay: BLI (Octet Red 96), EphA2-His on anti-His5 sensors, 4 ug/ml Fab-PEG-DSPE conjugate, slope of association curve 2-10 s relative to Fab 11 conjugate
Protocol: as §1

[4] = target: T1, Recombinant, Human EphA2 with …; assay: BLI (Octet Red96), EphA2-His on anti-His5 sensors, doxorubicin liposomes with inserted Fab-PEG-DSPE conjugate at 25 uM phospholipid, slope of association curve 3-20 s relative to Fab 11 liposomes
Protocol: as §2

Binder	binding strength compared to wild-type protein conjugate [1]	EphA2 binding strength compared to control liposomes [2]	Binding strength, % of wild type conjugate [3]	Fab-liposome binding strength, % of control [4]
B1	75%	> 80%	108 % of wild type conjugate	109 % of control
B2	75%	> 80%	85 % of wild type conjugate	89.3 % of control
B3	75%	> 80%	89.7 % of wild type conjugate	102 % of control
B4	75%	> 80%	75.5 % of wild type conjugate	99.6 % of control
B5	75%	> 80%	105 % of wild type conjugate	120 % of control
B6	75%	> 80%	96.9 % of wild type conjugate	96.5 % of control
B7	75%	> 80%	96.8 % of wild type conjugate	83.3 % of control
B8	75%	> 80%	86 % of wild type conjugate	102 % of control
